Data on three molecules can be found in US20210147546A1 (VRIJE UNIVERSITEIT BRUSSEL, published 2021).

Test [1] deals with T1, recombinant His-tagged human PD-L1 protein (SINO Biologicals, 10084-H08H) (human, UniProt Q9NZQ7 19-238).
T1 construct: Bought protein; also called immobilized recombinant PD-L1 protein; not shown: His-tag
Kind of test: SPR (Biacore T200), purified sdAb over immobilized recombinant human PD-L1. As to the method: (§1) All measurements were performed on a Biacore T200 device (GE Healtcare) at 25° C. and using Hepes-buffered saline (0.01M HEPES, pH 7.4; 0.15M NaCl, 3 mM EDTA, 0.005% Tween20) as running buffer. All recombinant proteins were dissolved to 10 μg/mL in 10 mM Na-acetate (pH 5.0) for immobilization on a CM5 sensor chip using linkage chemistry with 1-(3-(dimethylamino)propyl)-3-ethylcarbodiimide (EDC) and N-hydroxy-succinimide ([…]). Unreacted EDC-NHS linkers were blocked with 1M ethanolamine-HCl. For all measurements, SPR signals in the flow cell with immobilized protein were subtracted with those in a flow cell that underwent the same manipulations but where recombinant protein was omitted, to obtain specific binding signals (response units, RU). Affinity for human PD-L1 of the purified sdAbs was evaluated on immobilized PD-L1 protein.
(In SPR one partner is held on a chip, and binding of the other changes the refractive index at the surface.)

Test [2] deals with T2, human PD-L1 expressed on cells (lentivirally transduced HEK293T, MCF7 and 624-MEL cells; endogenous on moDCs) (human, UniProt Q9NZQ7 19-290).
T2 construct: whole, on cells; also called PD-L1+ MCF7
Kind of test: flow cytometry, fold increase in mean fluorescence intensity of binding to human PD-L1 compared to control sdAb. For orientation: In flow cytometry, cells or beads pass a laser one at a time.

In test [3] the target is T3, recombinant Fc-tagged human PD-L1 (R&D Systems, 156-B7) (human, UniProt Q9NZQ7 19-239).
T3 construct: Bought protein; Also the immunogen for the alpacas; also called PD-L1-Fc; Fc-PD-L1; not shown: Fc tag
Kind of test: SPR competition: sdAb K2 (0,78 to 1000 nM) mixed with 25 nM PD-L1-Fc and run over immobilized PD-1 Fc. The binder is named by legend paragraph 20, not on the sheet. The text gives 9.5 nM for this figure. The protocol: as §1
(§2) To evaluate the sdAb's IC₅₀, the sdAb concentration at which the relative response of the interaction between PD-1 and PD-L1 is inhibited by half, Fc-PD-1 protein was immobilized on a CM5 chip. […] The maximum relative response values were plotted in function of competing sdAb concentration and analyzed with a “Log inhibitor versus response (variable lope)” model in Prism to calculate IC₅₀ values.

Test [4] deals with T3, recombinant Fc-tagged human PD-L1 (R&D …). Briefly: SPR competition: sdAb mixed with 25 nM PD-L1-Fc, run over immobilized PD-1-Fc (FIG. 5A). The protocol: as §1, §2
Test [5] has the same target. Briefly: SPR competition: sdAb mixed with soluble recombinant human PD-L1, run over immobilized human PD-1 (FIG. 16B).
Description: as §2

T1 sequence (Q9NZQ7 19-238 limits assumed): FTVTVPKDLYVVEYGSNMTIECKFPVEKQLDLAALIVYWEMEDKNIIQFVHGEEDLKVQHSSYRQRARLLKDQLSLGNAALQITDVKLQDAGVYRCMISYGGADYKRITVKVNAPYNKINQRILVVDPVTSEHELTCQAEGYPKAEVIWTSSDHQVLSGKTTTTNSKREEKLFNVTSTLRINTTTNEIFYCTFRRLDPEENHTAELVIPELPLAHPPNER
T3 sequence (Q9NZQ7 19-239 limits assumed): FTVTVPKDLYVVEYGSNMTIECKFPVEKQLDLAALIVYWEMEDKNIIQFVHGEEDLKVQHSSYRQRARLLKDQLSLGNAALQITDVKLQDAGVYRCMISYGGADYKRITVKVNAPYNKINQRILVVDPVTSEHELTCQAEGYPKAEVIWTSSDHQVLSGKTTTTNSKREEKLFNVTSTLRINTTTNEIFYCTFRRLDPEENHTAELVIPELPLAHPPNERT
T2 sequence (Q9NZQ7 19-290): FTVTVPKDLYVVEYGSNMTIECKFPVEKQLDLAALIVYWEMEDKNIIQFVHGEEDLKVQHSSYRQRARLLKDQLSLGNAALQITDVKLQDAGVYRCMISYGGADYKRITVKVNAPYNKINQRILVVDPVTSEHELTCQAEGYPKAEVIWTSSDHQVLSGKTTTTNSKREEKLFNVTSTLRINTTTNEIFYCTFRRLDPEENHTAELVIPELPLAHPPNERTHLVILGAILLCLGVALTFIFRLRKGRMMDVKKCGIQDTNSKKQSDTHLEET

B1: sdAb K4 (human PD-L1-specific single domain antibody, C-terminal HIS-tag) (VHH)
VHH: QVQLQESGGGLVQPGGSLRLSCAASGFTFSSFAMSWVRQVPGRTLEWVSDINTGGDSTDYANSVKGRFTISRDNAKNTLYLQMNSLKPDDTAVYYCANVPKELVFSFASWGRGTQVTVSS
Take B1: in test [1], the Kd (commonly the constant that tells how readily two partners part at equilibrium) was found to be 4.5 nM. In addition, the “MFI PD-L1 binding (fold increase)” value in test [2] worked out at 6.9 fold.

B2: sdAb K2 (human PD-L1-specific single domain antibody, C-terminal HIS-tag) (VHH)
VHH: QVQLQESGGGLVQPGGSLRLSCAASGFTFSSFAMSWVRQAPGKGLEWVSDIDTTGRTTDYADSVKGRFTISRDNAENTLYLQMNDLKPEDTAVYYCANVPKELVLSFGSWGPGTQVTVSS
notes: also called anti-hPD-L1 sdAb K2; K2 (huPDL1 nanobody)
As to B2, the figures for the IC50 in test [3], in test [4] and in test [5] were 10 nM, 9.5 nM and 8.5 nM, respectively. Moreover, in test [1], the Kd was determined as 5.2 nM. Moreover, the “MFI PD-L1 binding (fold increase)” value in test [2] was 22.8 fold.

B3: sdAb K3 (human PD-L1-specific single domain antibody, C-terminal HIS-tag) (VHH)
VHH: QVQLQESGGGSVQPGGSLRLSCEASGFTFSSYAMSWVRQAPGEGLEWVSDINTGGDNTDYAGSVKGRFTISRDNAKNTLYLQMDSLKPEDTAKYYCANVPKELVHSFNSWGQGTQVTVSS
notes: also called K3 (huPDL1 nanobody)
Take B3: the Kd in test [1] stood at 3.5 nM. In addition, the “MFI PD-L1 binding (fold increase)” value in test [2] was 23.4 fold.
